Reference: patent US20190142971A1, “FORMULATION AND DELIVERY OF MODIFIED NUCLEOSIDE, NUCLEOTIDE, AND NUCLEIC ACID COMPOSITIONS” (ModernaTX, Inc., priority 2013, published 2019)

System: non-human primates (cynomolgus monkey)
Assay: Example 22: NHP hematology: neutrophils, reticulocytes, HGB, HCT, RBC (Tables 40-44)
Assay type: in vivo
Description: LNP formulations, shown in Table 33 (above), were administered to non-human primates (NHP) (cynomolgus monkey) (n=2) as intravenous injection (IV). The NHP were administered a single modified mRNA IV dose of 0.5 mg/kg, 0.05 mg/kg or 0.005 mg/kg of G-CSF or EPO in a dose volume of 0.5 mL/kg. The NHPs were bled before dosing with the modified mRNA LNP formulations to determine protein expression in the serum and a baseline complete blood count. After administration with the G-CSF modified mRNA formulation the NHP were bled at 8, 24, 48 and 72 hours to determined protein expression. After administration with the EPO modified mRNA formulation the NHP were bled at 8, 24, 48, 72 hours and 7 days to determined protein expression.
Samples collected from the NHPs after they were administered with G-CSF or EPO modified mRNA formulations were analyzed by ELISA to determine protein expression. Neutrophil and reticulocyte count was also determined pre-dose, 24 hours, 3 days, 7 days, 14 days and 18 days after administration of the modified G-CSF or EPO formulation.

[1] = 0.005 mg/kg, 14/18 days, Female NHP
[2] = 0.005 mg/kg, 14/18 days, Male NHP
[3] = 0.005 mg/kg, 24 hours, Female NHP
[4] = 0.005 mg/kg, 24 hours, Male NHP
[5] = 0.005 mg/kg, 3 days, Female NHP
[6] = 0.005 mg/kg, 7 days, Female NHP
[7] = 0.005 mg/kg, Pre-dose, Female NHP
[8] = 0.005 mg/kg, Pre-dose, Male NHP
[9] = 0.05 mg/kg, 14/18 days, Female NHP
[10] = 0.05 mg/kg, 14/18 days, Male NHP
[11] = 0.05 mg/kg, 24 hours, Female NHP

B1: EPO: modified mRNA encoding human erythropoietin, SEQ ID NO: 7, Cap1, fully modified with 5-methylcytosine and pseudouridine; LNP NPA-060-1 in Examples 17-22 (nucleic acid)
chain: GGGAAAUAAGAGAGAAAAGAAGAGUAAGAAGAAAUAUAAGAGCCACCAUGGGAGUGCACGAGUGUCCCGCGUGGUUGUGGUUGCUGCUGUCGCUCUUGAGCCUCCCACUGGGACUGCCUGUGCUGGGGGCACCACCCAGAUUGAUCUGCGACUCACGGGUACUUGAGAGGUACCUUCUUGAAGCCAAAGAAGCCGAAAACAUCACAACCGGAUGCGCCGAGCACUGCUCCCUCAAUGAGAACAUUACUGUACCGGAUACAAAGGUCAAUUUCUAUGCAUGGAAGAGAAUGGAAGUAGGACAGCAGGCCGUCGAAGUGUGGCAGGGGCUCGCGCUUUUGUCGGAGGCGGUGUUGCGGGGUCAGGCCCUCCUCGUCAACUCAUCACAGCCGUGGGAGCCCCUCCAACUUCAUGUCGAUAAAGCGGUGUCGGGGCUCCGCAGCUUGACGACGUUGCUUCGGGCUCUGGGCGCACAAAAGGAGGCUAUUUCGCCGCCUGACGCGGCCUCCGCGGCACCCCUCCGAACGAUCACCGCGGACACGUUUAGGAAGCUUUUUAGAGUGUACAGCAAUUUCCUCCGCGGAAAGCUGAAAUUGUAUACUGGUGAAGCGUGUAGGACAGGGGAUCGCUGAUAAGCUGCCUUCUGCGGGGCUUGCCUUCUGGCCAUGCCCUUCUUCUCUCCCUUGCACCUGUACCUCUUGGUCUUUGAAUAAAGCCUGAGUAGGAAG
modifications: Cap1, 5-methylcytosine, pseudouridine
Female NHP HGB (0.005 mg/kg IV, 14/18 days): 129 g/L | Female NHP Neutrophils (0.005 mg/kg IV, 14/18 days): 2.54 10^9/L | Male NHP HGB (0.005 mg/kg IV, 14/18 days): 128 g/L | Male NHP Neutrophils (0.005 mg/kg IV, 14/18 days): 1.52 10^9/L | Female NHP HGB (0.005 mg/kg IV, 24 hours): 128 g/L | Female NHP Neutrophils (0.005 mg/kg IV, 24 hours): 2.59 10^9/L | Male NHP HGB (0.005 mg/kg IV, 24 hours): 122 g/L | Male NHP Neutrophils (0.005 mg/kg IV, 24 hours): 5.37 10^9/L | Female NHP HGB (0.005 mg/kg IV, 3 days): 130 g/L | Female NHP Neutrophils (0.005 mg/kg IV, 3 days): 2.83 10^9/L | Male NHP HGB (0.005 mg/kg IV, 3 days): 125 g/L | Male NHP Neutrophils (0.005 mg/kg IV, 3 days): 6.08 10^9/L | Female NHP HGB (0.005 mg/kg IV, 7 days): 127 g/L | Female NHP Neutrophils (0.005 mg/kg IV, 7 days): 2.23 10^9/L | Male NHP HGB (0.005 mg/kg IV, 7 days): 119 g/L | Male NHP Neutrophils (0.005 mg/kg IV, 7 days): 3.51 10^9/L | Female NHP HGB (0.005 mg/kg IV, Pre-dose): 136 g/L | Female NHP Neutrophils (0.005 mg/kg IV, Pre-dose): 5.96 10^9/L | Male NHP HGB (0.005 mg/kg IV, Pre-dose): 132 g/L | Male NHP Neutrophils (0.005 mg/kg IV, Pre-dose): 5.46 10^9/L | HCT [1]: 0.42 L/L | RBC [1]: 5.36 10^12/L | HCT [2]: 0.42 L/L | RBC [2]: 5.67 10^12/L | HCT [3]: 0.43 L/L | RBC [3]: 5.35 10^12/L | HCT [4]: 0.42 L/L | RBC [4]: 5.63 10^12/L | HCT [5]: 0.42 L/L | RBC [5]: 5.42 10^12/L | HCT (0.005 mg/kg, 3 days, Male NHP): 0.44 L/L | RBC (0.005 mg/kg, 3 days, Male NHP): 5.77 10^12/L | HCT [6]: 0.42 L/L | RBC [6]: 5.35 10^12/L | HCT (0.005 mg/kg, 7 days, Male NHP): 0.41 L/L | RBC (0.005 mg/kg, 7 days, Male NHP): 5.49 10^12/L | HCT [7]: 0.45 L/L | RBC [7]: 5.72 10^12/L | HCT [8]: 0.48 L/L | RBC [8]: 6.15 10^12/L | Female NHP HGB (0.05 mg/kg IV, 14/18 days): 129 g/L | Female NHP Neutrophils (0.05 mg/kg IV, 14/18 days): 1.27 10^9/L | Male NHP HGB (0.05 mg/kg IV, 14/18 days): 133 g/L | Male NHP Neutrophils (0.05 mg/kg IV, 14/18 days): 1.53 10^9/L | Female NHP HGB (0.05 mg/kg IV, 24 hours): 116 g/L | Female NHP Neutrophils (0.05 mg/kg IV, 24 hours): 2.63 10^9/L | Male NHP HGB (0.05 mg/kg IV, 24 hours): 123 g/L | Male NHP Neutrophils (0.05 mg/kg IV, 24 hours): 2.51 10^9/L | Female NHP HGB (0.05 mg/kg IV, 3 days): 120 g/L | Female NHP Neutrophils (0.05 mg/kg IV, 3 days): 4.08 10^9/L | Male NHP HGB (0.05 mg/kg IV, 3 days): 116 g/L | Male NHP Neutrophils (0.05 mg/kg IV, 3 days): 1.73 10^9/L | Female NHP HGB (0.05 mg/kg IV, 7 days): 121 g/L | Female NHP Neutrophils (0.05 mg/kg IV, 7 days): 2.77 10^9/L | Male NHP HGB (0.05 mg/kg IV, 7 days): 126 g/L | Male NHP Neutrophils (0.05 mg/kg IV, 7 days): 1.23 10^9/L | Female NHP HGB (0.05 mg/kg IV, Pre-dose): 133 g/L | Female NHP Neutrophils (0.05 mg/kg IV, Pre-dose): 2.15 10^9/L | Male NHP HGB (0.05 mg/kg IV, Pre-dose): 133 g/L | Male NHP Neutrophils (0.05 mg/kg IV, Pre-dose): 0.97 10^9/L | HCT [9]: 0.43 L/L | RBC [9]: 5.57 10^12/L | HCT [10]: 0.46 L/L | RBC [10]: 5.57 10^12/L | HCT [11]: 0.39 L/L | RBC [11]: 5.18 10^12/L | HCT (0.05 mg/kg, 24 hours, Male NHP): 0.43 L/L | RBC (0.05 mg/kg, 24 hours, Male NHP): 5.25 10^12/L | HCT (0.05 mg/kg, 3 days, Female NHP): 0.4 L/L | RBC (0.05 mg/kg, 3 days, Female NHP): 5.16 10^12/L | HCT (0.05 mg/kg, 3 days, Male NHP): 0.38 L/L | RBC (0.05 mg/kg, 3 days, Male NHP): 4.81 10^12/L | HCT (0.05 mg/kg, 7 days, Female NHP): 0.41 L/L | RBC (0.05 mg/kg, 7 days, Female NHP): 5.31 10^12/L | HCT (0.05 mg/kg, 7 days, Male NHP): 0.45 L/L | RBC (0.05 mg/kg, 7 days, Male NHP): 5.37 10^12/L
